± gives the standard deviation of the averaged measurements.
What was measured:
Assay in all cases: protein stability index of tFT-peptide fusion (C-terminal peptide) (PSI (0-1 scale)); higher = more stable (slower turnover)
[1] = test system: Saccharomyces cerevisiae; conditions: temperature: 30 C
Experimental: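 MPS profiling in S. cerevisiae of the yeast C-terminome library: the last 12 aa of each annotated ORF are fused to the C-terminus of a sfGFP-mCherry timer, after a GGGS linker. Cells are FACS-sorted into 8 mCherry/sfGFP bins and deep-sequenced. PSI runs from 0 (unstable) to 1 (stable); wild type and das1Δ backgrounds, two technical replicates each.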

[2] = test system: Saccharomyces cerevisiae; conditions: genetic background: wild type; temperature: 30 C
[3] = test system: Saccharomyces cerevisiae
Experimental: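 MPS profiling in S. cerevisiae of the tFT-X12 degron library: putative degron peptides plus stable controls, 12 aa, fused to the C-terminus of a sfGFP-mCherry timer. Cells are FACS-sorted into 8 mCherry/sfGFP bins and deep-sequenced. PSI runs from 0 (unstable) to 1 (stable). Backgrounds are wild type, das1Δ and doa10Δ at 30 °C, and wild type, das1Δ, cdc34-1 and cdc53-1 at 37 °C; 2-3 technical replicates each.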

[4] = genetic background: das1 deletion
[5] = genetic background: cdc34-1, temperature: 37 C
[6] = genetic background: cdc53-1, temperature: 37 C
[7] = genetic background: das1 deletion, temperature: 30 C
[8] = genetic background: das1 deletion, temperature: 37 C
[9] = genetic background: doa10 deletion, temperature: 30 C
[10] = genetic background: wild type, temperature: 30 C
[11] = genetic background: wild type, temperature: 37 C

## KENSRSWIIYLL [YGL034C C-terminal 12 aa]
[1]; [4]
  protein stability index: 0.653 ± 0.016
[1]; genetic background: wild type
  protein stability index: 0.556 ± 0.03

## AKPALFERFINA [MCD1 C-terminal 12 aa]
[1]; [4]
  protein stability index: 0.6979 ± 0.0043
[1]; genetic background: wild type
  protein stability index: 0.665 ± 0.011

## DEELFLLSKSLR [SPC98 C-terminal 12 aa]
[1]; [4]
  protein stability index: 0.724 ± 0.013
[1]; genetic background: wild type
  protein stability index: 0.6784 ± 0.0026

## EKLISLSQSMEN [ATP11 C-terminal 12 aa]
[1]; [4]
  protein stability index: 0.718 ± 0.0096
[1]; genetic background: wild type
  protein stability index: 0.785 ± 0.11

## KNHEMGEEETKF [TCB1 C-terminal 12 aa]
[1]; [4]
  protein stability index: 0.715 ± 0.0045
[1]; genetic background: wild type
  protein stability index: 0.721 ± 0.041

## FIWQNVLMWLMG [YIF1 C-terminal 12 aa]
[1]; [4]
  protein stability index: 0.7 ± 0.011
[1]; genetic background: wild type
  protein stability index: 0.54 ± 0.017

## GRDCISKRAILE [IMP2 C-terminal 12 aa]
[1]; [4]
  protein stability index: 0.7067 ± 0.0024
[1]; genetic background: wild type
  protein stability index: 0.6702 ± 0.004

## ISNDMQVPPQIS [CKS1 C-terminal 12 aa]
[1]; [4]
  protein stability index: 0.722 ± 0.0098
[1]; genetic background: wild type
  protein stability index: 0.688 ± 0.011

## RLGLDWKPDGMS [STD1 C-terminal 12 aa]
[1]; [4]
  protein stability index: 0.725 ± 0.029
[1]; genetic background: wild type
  protein stability index: 0.6963 ± 0.0059

## FSCHSFEYLARR [YDR401W C-terminal 12 aa]
[1]; [4]
  protein stability index: 0.701 ± 0.013
[1]; genetic background: wild type
  protein stability index: 0.677 ± 0.047

## LEYLQDTYQVLK [FAR3 C-terminal 12 aa]
[1]; [4]
  protein stability index: 0.702 ± 0.031
[1]; genetic background: wild type
  protein stability index: 0.733 ± 0.01

## DDEAGALIPENC [SOL4 C-terminal 12 aa]
[1]; [4]
  protein stability index: 0.705 ± 0.03
[1]; genetic background: wild type
  protein stability index: 0.688 ± 0.0086

## VSKLNGFSFTDI [ASE1 C-terminal 12 aa]
[1]; [4]
  protein stability index: 0.669 ± 0.0088
[1]; genetic background: wild type
  protein stability index: 0.674 ± 0.016

## YPGAKTLTYTSR [CMI8 C-terminal 12 aa]
[1]; [4]
  protein stability index: 0.703 ± 0.013
[1]; genetic background: wild type
  protein stability index: 0.673 ± 0.01

## LQSLPISSWRCT [YBR220C C-terminal 12 aa]
[1]; [4]
  protein stability index: 0.701 ± 0.0098
[1]; genetic background: wild type
  protein stability index: 0.6711 ± 0.003

## ELAKKWKQEQAL [CLF1 C-terminal 12 aa]
[1]; [4]
  protein stability index: 0.676 ± 0.011
[1]; genetic background: wild type
  protein stability index: 0.667 ± 0.011

## SIGLTNLFLYRV [YDR010C C-terminal 12 aa]
[1]; [4]
  protein stability index: 0.715 ± 0.0083
[1]; genetic background: wild type
  protein stability index: 0.681 ± 0.01

## KIWVNIYSTPTS [PLS1 C-terminal 12 aa]
[1]; [4]
  protein stability index: 0.6827 ± 0.0066
[1]; genetic background: wild type
  protein stability index: 0.705 ± 0.035

## GSESILTAKQPI [OCA2 C-terminal 12 aa]
[1]; [4]
  protein stability index: 0.706 ± 0.0075
[1]; genetic background: wild type
  protein stability index: 0.685 ± 0.009

## AKDIKGYGTQKI [PRE4 C-terminal 12 aa]
[1]; [4]
  protein stability index: 0.65979 ± 0.00058
[1]; genetic background: wild type
  protein stability index: 0.695 ± 0.022

## NSAGLLTLEYLS [TFC6 C-terminal 12 aa]
[1]; [4]
  protein stability index: 0.696 ± 0.012
[1]; genetic background: wild type
  protein stability index: 0.719 ± 0.036

## MVVIVLFLSYRN [YGL177W C-terminal 12 aa]
[1]; [4]
  protein stability index: 0.276 ± 0.034
[1]; genetic background: wild type
  protein stability index: 0.275 ± 0.031

## FRQSWQIDIGTW [YAL037C-B C-terminal 12 aa]
[1]; [4]
  protein stability index: 0.7097 ± 0.0042
[1]; genetic background: wild type
  protein stability index: 0.676 ± 0.017

## AHSFKCVGVAVR
[2]
  protein stability index: 0.3246 ± 0.0014
[3]; [5]
  protein stability index: 0.4628 ± 0.00085
[3]; [6]
  protein stability index: 0.504 ± 0.01
[3]; [7]
  protein stability index: 0.332 ± 0.024
[3]; [8]
  protein stability index: 0.5469 ± 0.0017
[3]; [9]
  protein stability index: 0.309 ± 0.004
[3]; [10]
  protein stability index: 0.347 ± 0.032
[3]; [11]
  protein stability index: 0.544 ± 0.0072

## FFFFLFRSIFLS
[2]
  protein stability index: 0.152 ± 0.0068
[3]; [5]
  protein stability index: 0.146 ± 0.12
[3]; [6]
  protein stability index: 0.124 ± 0.013
[3]; [7]
  protein stability index: 0.293 ± 0.05
[3]; [8]
  protein stability index: 0.394 ± 0.094
[3]; [9]
  protein stability index: 0.179 ± 0.0022
[3]; [10]
  protein stability index: 0.118 ± 0.012
[3]; [11]
  protein stability index: 0.138 ± 0.011

## VLSFWAFLFLLF
[2]
  protein stability index: 0.335 ± 0.011
[3]; [5]
  protein stability index: 0.428 ± 0.012
[3]; [6]
  protein stability index: 0.412 ± 0.026
[3]; [7]
  protein stability index: 0.398 ± 0.023
[3]; [8]
  protein stability index: 0.488 ± 0.015
[3]; [9]
  protein stability index: 0.31 ± 0.013
[3]; [10]
  protein stability index: 0.282 ± 0.0089
[3]; [11]
  protein stability index: 0.3785 ± 0.0022

## SIQMNCILLLVI
[2]
  protein stability index: 0.298 ± 0.058
[3]; [5]
  protein stability index: 0.211 ± 0.041
[3]; [6]
  protein stability index: 0.224 ± 0.021
[3]; [7]
  protein stability index: 0.213 ± 0.026
[3]; [8]
  protein stability index: 0.339 ± 0.012
[3]; [9]
  protein stability index: 0.188 ± 0.032
[3]; [10]
  protein stability index: 0.186 ± 0.024
[3]; [11]
  protein stability index: 0.299 ± 0.028

## AVCVGILIWATV
[2]
  protein stability index: 0.314 ± 0.08
[3]; [5]
  protein stability index: 0.0816 ± 0.0045
[3]; [6]
  protein stability index: 0.0998 ± 0.009
[3]; [7]
  protein stability index: 0.176 ± 0.029
[3]; [8]
  protein stability index: 0.275 ± 0.013
[3]; [9]
  protein stability index: 0.142 ± 0.018
[3]; [10]
  protein stability index: 0.165 ± 0.025
[3]; [11]
  protein stability index: 0.264 ± 0.017

## LRRQAFRYRTLL
[2]
  protein stability index: 0.221 ± 0.0096
[3]; [5]
  protein stability index: 0.458 ± 0.037
[3]; [6]
  protein stability index: 0.552 ± 0.031
[3]; [7]
  protein stability index: 0.569 ± 0.021
[3]; [8]
  protein stability index: 0.566 ± 0.006
[3]; [9]
  protein stability index: 0.1668 ± 0.0014
[3]; [10]
  protein stability index: 0.19 ± 0.0052
[3]; [11]
  protein stability index: 0.2454 ± 0.00035
